# Results as given in publication PMC2783993 (Biotechnology progress, 2009).
# B1: bovine hemoglobin β globin chain (natural protein)
# chain: not shown
# Target: the molecule itself
# Experiment: LC-MS
protein,measurement,value
B1,stoichiometry N,2
